In PMC4644379:

What was measured:
[1] = target: NKG2D on human NK cells (human (endogenous in NK cells and CD8+ T cells from PBMC)) (UniProt P26718)
[2] = target: NKG2D on human NK cells (human (endogenous in NK cells and CD8+ T cells from PBMC)) (UniProt P26718); remark: listed apart in the source
[3] = target: NKG2D on human NK cells (human (endogenous in NK cells and CD8+ T cells from PBMC)) (UniProt P26718); remark: listed apart in the source
[4] = target: NKG2D on human NK cells (human (endogenous in NK cells and CD8+ T cells from PBMC)) (UniProt P26718); remark: listed apart in the source
[5] = target: NKG2D on human NK cells (human (endogenous in NK cells and CD8+ T cells from PBMC)) (UniProt P26718); remark: listed apart in the source
[6] = target: NKG2D on human NK cells (human (endogenous in NK cells and CD8+ T cells from PBMC)) (UniProt P26718); remark: listed apart in the source
[7] = target: NKG2D on human NK cells (human (endogenous in NK cells and CD8+ T cells from PBMC)) (UniProt P26718); remark: listed apart in the source

Sequence of UniProt P26718 (P26718 whole entry): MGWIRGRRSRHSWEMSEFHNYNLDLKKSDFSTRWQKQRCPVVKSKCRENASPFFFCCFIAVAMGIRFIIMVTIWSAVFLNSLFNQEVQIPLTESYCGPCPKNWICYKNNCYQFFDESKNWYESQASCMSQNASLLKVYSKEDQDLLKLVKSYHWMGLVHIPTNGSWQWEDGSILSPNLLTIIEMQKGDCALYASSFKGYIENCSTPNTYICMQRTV

| Substance | regression coefficient of the MFI of CD107a on NK cells against MICA expression intensity on target clones [1] | regression coefficient of killing by LAK cells against MICA expression intensity on target clones [2] | regression coefficient of the MFI of IFNγ in CD56brightCD16- NK cells against MICA expression intensity [3] | IFNγ release (ELISA) of NK cells co-cultured 24 h with L cell clones, difference to L-MICA-129Val, adjusted for MICA expression (pg/ml higher than with L-MICA-129Val) [4] | IFNγ release (ELISA) of NK cells, effect of MICA expression intensity on target clones (pg/ml per MFI unit) [4] | down-regulation of NKG2D on NK cells co-cultured 4 and 24 h with L cell clones: MFI of NKG2D against L-con [5] [MFI units] | down-regulation of NKG2D on NK cells co-cultured 4 and 24 h with L cell clones: percentage of NKG2D+ NK cells against L-con [5] [%-points] | down-regulation of NKG2D on NK cells: percentage of NKG2D+ cells, difference between L-MICA-129Met and L-MICA-129Val targets (%-points against L-MICA-129Val) [5] | NKG2D expression on CD56brightCD16+ NK cells after 4 and 24 h, lower with L-MICA-129Met than with L-MICA-129Val clones (%-points lower than with L-MICA-129Val) [6] | NKG2D expression on CD56brightCD16- NK cells after 4 and 24 h, lower with L-MICA-129Met than with L-MICA-129Val clones (%-points lower than with L-MICA-129Val) [6] | NKG2D expression on CD56dimCD16+ NK cells after 4 and 24 h, lower with L-MICA-129Met than with L-MICA-129Val clones (%-points lower than with L-MICA-129Val) [6] | down-regulation of NKG2D on CD8+ T cells co-cultured with L cell clones: MFI of NKG2D, difference to L-MICA-129Val (MFI units more than with L-MICA-129Val) [7] | down-regulation of NKG2D on CD8+ T cells co-cultured with L cell clones: proportion of NKG2D+CD3+CD8+ cells, difference to L-MICA-129Val (%-points more than with L-MICA-129Val) [7] | degranulation of NK cells exposed to L cell clones: MFI of CD107a, difference to L-MICA-129Met, adjusted for MICA expression (MFI units lower than with L-MICA-129Met) [1] | degranulation of NK cells exposed to L cell clones: percentage of CD107a+ NK cells, difference to L-MICA-129Met, adjusted for MICA expression (%-points less than with L-MICA-129Met) [1] | relative lysis of L cell clones by LAK cells (51Cr release, E:T 200:1), difference to L-MICA-129Met, adjusted for MICA expression (%-points reduced against L-MICA-129Met) [2] | intracellular IFNγ (MFI) in CD56brightCD16- NK cells co-cultured 4 h with L cell clones, difference to L-MICA-129Met (MFI units lower than with L-MICA-129Met) [3] | percentage of IFNγ+ CD56brightCD16- NK cells co-cultured 4 h with L cell clones, difference to L-MICA-129Met (%-points less than with L-MICA-129Met) [3] | regression coefficient of the proportion of IFNγ+ CD56brightCD16- NK cells against MICA expression intensity [3] | IFNγ release (ELISA) of NK cells, effect of MICA expression intensity on target clones (pg/ml per MFI unit of MICA) [4] |
| --- | --- | --- | --- | --- | --- | --- | --- | --- | --- | --- | --- | --- | --- | --- | --- | --- | --- | --- | --- | --- |
| MICA-129Met variant (MICA*00701 allele) expressed on L cells (from UniProt Q29983 24-383) (ligand) | 0.05 | -0.0834 | -1.11 | 176 | 0.142 | 13.7 | 19.4 | -9.3 | 16.2 | 15.8 | 19.5 | 12.1 | 35.8 |  |  |  |  |  |  |  |
| MICA-129Val variant (MICA*00701 with valine at position 129) expressed on L cells (from UniProt Q29983 24-383) (ligand) | 0.29 | 0.126 | 0.09 |  |  | 11.8 | 9.5 |  |  |  |  |  |  | 38.5 | 10.1 | 13 | 12.5 | 7.5 | 0.14 | 1.1 |
